Source: patent publication US20230365672A1 (KINDRED BIOSCIENCES, published 2023)

T1: biotinylated equine IL31 (immobilized to the biolayer interferometry sensor) (equine, biotinylated, sites not stated)
T1 chain: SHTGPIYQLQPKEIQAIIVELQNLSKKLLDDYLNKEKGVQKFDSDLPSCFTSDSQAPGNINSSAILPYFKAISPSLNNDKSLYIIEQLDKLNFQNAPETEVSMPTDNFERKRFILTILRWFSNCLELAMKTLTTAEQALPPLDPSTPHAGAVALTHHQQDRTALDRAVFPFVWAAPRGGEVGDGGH

T2: canine IL31 with C-terminal polyHis tag (canine, biotinylated (EZ-Link NHS-LC-biotin), sites not stated)
T2 construct: also called biotinylated canine IL31
T2 chain: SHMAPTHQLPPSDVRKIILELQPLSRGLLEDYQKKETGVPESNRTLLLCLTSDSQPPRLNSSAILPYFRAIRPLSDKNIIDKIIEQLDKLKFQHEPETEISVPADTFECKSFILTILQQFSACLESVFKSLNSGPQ

B1: M14 antibody (as used in Example 7) (antibody, V domains shown)
VH: EVQLQESGPSLVKPSQTLSLTCSVTGDSITSGYWNWIRKFPGNKLEYMGYISYSGITDYNPSLKSRISITRDTSKNQYYLQLNSVTTEDTATYYCARYGNYGYAMDYWGQGTSVTVSS
VL: DIVLTQSPASLAVSLGQRATISCRASESVDTYGNSFMHWYQQKSGQSPKLLIYRASNLESGIPARFGGSGSRTDFTLTIDPVEADDVATYYCQQSYEDPWTFGGGTKLEIK
notes: also called monoclonal antibody M14
B2: caninized M14 IgG-B (antibody, V domains shown)
VH: EVQLVESGPSLVKPGGSLRLTCSVTGDSITSGYWNWIRKFPGNKLEYMGYISYSGITDYNPSLKSRITISRDTSKNQYYLQLNSVTTEDTATYYCARYGNYGYAMDYWGQGTLVTVSS
VL: DIVMTQSPASLSVSLGQRATISCRASESVDTYGNSFMHWYQQKPGQSPKLLIYRASNLESGIPARFGGSGSGTDFTLTIDPVQADDVATYYCQQSYEDPWTFGGGTKLEIKR
notes: canine IgG-B; also called caninized M14 antibody; caninized IL31-mAb M14

Assays:
[1] = molecular target: T1, biotinylated equine IL31 (immobilized …); assay: biolayer interferometry, biotinylated equine IL31 on the sensor, preliminary measurement
[2] = molecular target: T2, canine IL31 with C-terminal polyHis tag; assay: biolayer interferometry (Octet), biotinylated canine IL31 on streptavidin tips, 2:1 binding model
Protocol: The binding analysis was performed using a biosensor Octet as follows. Briefly, canine IL31 was biotinylated. The free unreacted biotin was removed from biotinylated IL31 by extensive dialysis. Biotinylated canine IL31 was captured on streptavidin sensor tips. The association of four different concentrations (400, 200, 66.6, and 33 nM) of antibody and IL31 (human and canine, in different tests) was monitored for ninety seconds. Dissociation was monitored for 600 seconds. A buffer only blank curve was subtracted to correct for any drift. The data were fit to a 2:1 binding model using ForteBio™ data analysis software to determine the kₒₙ, koff, and the Kd. The buffer for dilutions and all binding steps was: 20 mM phosphate, 150 mM NaCl, pH 7.2.

Binder | Kd [1] [nM] | Kd [2] [nM]
B1 | 10 to 50 | 
B2 |  | < 0.01
